B1: mutant huntingtin exon1 with a 44-residue polyQ domain, released from the MBP fusion protein by Factor Xa (domain or fragment)
chain: MATLEKLMKAFESLKSFQQQQQQQQQQQQQQQQQQQQQQQQQQQQQQQQQQQQQQQQQQQQPPPPPPPPPPPQLPQPPPQAQPLLPQPQPPPPPPPPPPGPAVAEEPLHRPSGS
notes: huntingtin exon1; The polyQ domain is expanded to 44 Gln against the UniProt entry. numbers count on: this Q44 construct from Met1; linker before the C-terminal His6, translated from the printed DNA; Uniformly 13C,15N-labelled for the ssNMR samples; Forms narrow (~6 nm) fibrils at 37 °C and wide (~15 nm) fibrils at 22 °C; both are the same chain; also called htt exon1; mutant htt exon1; source: …

Columns and labels:
[1] = molecular target: the molecule itself; test: fibril formation, seen by negative-stain TEM + FTIR + MAS solid-state NMR; htt exon1 released from the MBP fusion by Factor Xa at 22 or 37 °C in PBS pH 7.4 with 0.02% sodium azide; mature fibrils pelleted and washed
[2] = molecular target: B1; test: seeded and unseeded aggregation kinetics (ThT fluorescence + HPLC-based sedimentation assay); disaggregated htt^NTQ23P10K2 peptide in PBS pH 7.0 at 37 °C, with or without 20 mol-% sonicated htt exon1 fibril seeds formed at 22 or 37 °C; conditions: both partners purified

Row | binding result [2] | Binder | binding result [1]
1 | – | B1 | binds
2 | binds | htt^NTQ23P10K2 peptide (written out from the printed formula Q23P10K2: 23 Gln, 10 Pro, 2 Lys; also called shorter peptides with a 23-residue polyQ domain) peptide: MATLEKLMKAFESLKSFQQQQQQQQQQQQQQQQQQQQQQQPPPPPPPPPPKK | –

From article PMC5458082, “Fibril polymorphism affects immobilized non-amyloid flanking domains of huntingtin exon1 rather than its polyglutamine core” (Nature Communications, 2017)
